From paper PMC12081870 (Communications Biology, 2025)

Legend:
G-actin [1] = assay: MST, Las17 300-422 P387A / P388A to labelled G-actin; type: binding, rabbit; settings: three repeats, not statistically significant
Text: (§1) A Purified individual GST-tagged Sla1 SH3 domains were used to probe a Celluspot array consisting of a series of 12 amino acid peptides starting with residue 181, and subsequent peptides starting at two amino acid intervals, up to amino acid 540. Binding of GST-Sla1 SH3 to the array was identified by further probing of HRP-tagged anti-GST and subsequent visualisation using chemiluminescence. […] Error bars are standard error of mean.
The small reduction was not found to be statistically significant over three repeats.
(§2) Microscale Thermophoresis (MST) assays were performed as described previously. Briefly, rabbit muscle actin in G-buffer minus DTT was […] using Monolith NT^TM Protein Labelling Kit RED-Malemide (NanoTemper Technologies, Munich, Germany). […] Each reaction was then loaded into Monolith NT.115 Premium Treated Capillaries (NanoTemper Technologies) and thermophoresis was measured in a Monolith NT.115 Microscale Thermophoresis device (NanoTemper Technologies). Thermophoresis was measured at 20% red LED power and 40% IR laser power at 22°C. Fnorm was calculated from the ratio of fluorescence before heating and after the new equilibrium had been reached. […] Each experiment was carried out three separate times with protein from different protein preparations and mean ± SE shown except for Fig. 7a where mean ± SD is shown.

[2] = system: Las17 and las17 P387A expressing yeast strains; assay: Latrunculin-A halo assay on yeast; type: cell-based, Saccharomyces cerevisiae; settings: 10 µl latrunculin-A disc, halo assay, 5 repeats
Description: Supplementary Information.
Methods used in Supplementary Data
Yeast strains, growth and staining
Yeast plasmids used in this study are listed in Supplementary table 1 and yeast strains used in Supplementary table 2. Unless stated otherwise, cells were grown with rotary shaking at 30°C in liquid YPD medium (1% yeast extract, 2% Bacto-peptone, 2% glucose supplemented with 40 μg/ml adenine) or in synthetic medium (0.67% yeast nitrogen base, 2% glucose) with appropriate supplements. Growth assays used solid medium with 2% agar added to above. All strains carrying fluorescent tags have growth properties similar to isogenic control strains with the exception of strains carrying dual reporters where lifetimes were longer for both wild type and mutant strains (in Figure 9D). Point mutations in LAS17 were generated using site directed mutagenesis (Agilent). DNA cassettes carrying mutations for integration were transformed into KAY1801. Mutant colonies were counter-selected on minimal medium, containing 0.005% uracil and 0.1% 5’-Fluoroorotic Acid (5-FOA; Melford labs). […]
expressing strains on plates on which a disc carrying 10 µl of latrunculin-A of varying concentrations was placed (white disc). […] They were then scored according to the extent of uptake and categorised according to the key shown. >100 cells were visualised for each strain in each of 3 independent experiments. […]

[3] = molecular target: Las17 PPR-N fragment (residues 300-422), wild type (S. cerevisiae) (UniProt Q12446); assay: BLI; Octet R2 (Sartorius); Octet NTA Biosensors or Octet GST Biosensors, which partner was loaded is not stated; repeated three times; the constant of SH3#1-3 is called apparent
actin = assay: Pyrene actin assay, actin polymerisation in the absence of Arp2/3; type: biochemical, rabbit; settings: no Arp2/3, 300 nM fragment, 3 µM actin
Description: 300 nM each fragment; 3 µM actin. […] Error bars are standard error of mean.
Rabbit skeletal muscle actin was gel filtered as described. Concentrations of G-actin produced and used in experiments were in the range 35–65 µM.
(§3) Fluorometry assays were performed as described previously. 370 μl assays used 3 μM actin as indicated unless otherwise specified. Pyrene-actin was added to 5%, mixed thoroughly, and added to the fluorometry cuvette. Polymerization salts, 10× KME (500 mM KCl, 10 mM MgCl2, 10 mM EGTA, 100 mM Tris-HCl [pH 8.0]) were mixed with fragments or G buffer to give final concentration of 0.5× KME before reading fluorescence. […] Experiments were carried out three separate times with different protein preparations and a representative graph shown.

[4] = molecular target: Las17 PPR-N fragment (residues 300-422); assay: Biolayer Interferometry (BLI), Sla1 SH3 domains to Las17 PPR-N; type: binding, Saccharomyces cerevisiae; settings: Biolayer Interferometry
Text: (§4) To investigate binding characteristics of the SH3 domains further, Sla1 SH3 protein domains were purified. Three Sla1 SH3 single domains, tandem domains Sla1 SH3#1&2, Sla1 SH3#1&2 W108A (in which the W108A mutation prevents proline motif binding by SH3#2 but not SH3#1) and a fragment with all three SH3 domains were expressed recombinantly and purified. […] This outcome is in line with original research of Rodal and colleagues and with more recent studies of avidity developed by Williamson, which highlighted the importance of tandem binding SH3 domains[13],[27].
Biolayer Interferometry (BLI) assays were performed using an OctetⓇ R2 (Sartorius). Protein samples were placed into the wells of a polystyrene plate (ProxiPlateTM, Perkin Elmer) and binding measured either with Octet NTA Biosensors or Octet GST Biosensors. Screening assays were performed to determine the optimum loading concentration and time for each binding pair to ensure that the probe was not saturated. All experiments were repeated three times, each time with newly prepared protein. Analysis and visualisation were performed using GraphPad Prism 10.0.2.

[5] = system: Las17-Arp2/3 mediated actin polymerisation; assay: Pyrene actin assay, inhibition of Las17-Arp2/3 mediated actin polymerisation by Sla1 SH3 domains; type: biochemical; settings: Actin 3 µM, Las17 300 nM, Sla1 SH3 domains 300 nM each (1:1), with Arp2/3
Description: SH3 domains of Sla1 are numbered #1, #2 and #3. […] PP in pink boxes indicate poly-proline tracts in this region. Other regions of Las17 are included but not to scale. B Representative pyrene actin assays show inhibition of Las17-Arp2/3 mediated actin polymerisation by Sla1-SH3 domains when added as separate domains (orange #1, green #2 or cyan #3) or on a single peptide (red). […] Sla1 SH3#1 (aa 3-68), SH3#3 (aa 354-413), SH3#1-2 (aa 5-131), SH3#1-3 (aa 5-413).
as §3

G-actin [6] = assay: MST, Las17 300-422 to labelled G-actin in presence or absence of Sla1 SH3#1-3 (competition); type: binding, rabbit; settings: Sla1 SH3#1-3 4.5 µM, actin 50 nM, Las17(300–422) 0.29-9.5 µM
Description: The experiment was then repeated with the addition of Sla1 SH3#1-3 fragment at 4.5 µM.
Error bars are standard deviation.
Microscale Thermophoresis (MST) assays were performed as described previously[15]. Briefly, rabbit muscle actin in G-buffer minus DTT was lysine labelled using Monolith NT^TM Protein Labelling Kit RED-Malemide (NanoTemper Technologies, Munich, Germany). […] Each reaction was then loaded into Monolith NT.115 Premium Treated Capillaries (NanoTemper Technologies) and thermophoresis was measured in a Monolith NT.115 Microscale Thermophoresis device (NanoTemper Technologies). Thermophoresis was measured at 20% red LED power and 40% IR laser power at 22°C. Fnorm was calculated from the ratio of fluorescence before heating and after the new equilibrium had been reached.

[7] = system: Las17-Arp2/3 mediated actin polymerisation; settings: 15 nM Las17, 1 µM Sla1 SH3 domains, ref [13]; cited from earlier work
Text: In Sla1 the first two SH3 domains are immediately juxtaposed with no linker. There are then 236 residues before the third SH3 domain (Fig. 1A).

Las17 = assay: Microscale thermophoresis, Sla1 SH3#2 to Las17; type: binding, Saccharomyces cerevisiae; settings: could not be saturated within the concentration range
Text: as §4, §2

[8] = system: Las17 12mer peptides / GST-Sla1 SH3 domains; assay: Peptide spot array (Celluspot) of Las17 12mers probed with GST-Sla1 SH3 domains; type: binding, Saccharomyces cerevisiae; settings: GST-Sla1 SH3 domain on 12mer array, 2-residue offset, anti-GST HRP, chemiluminescence
Description: as §1
They were incubated with GST fused SH3 domains of Sla1 or with GST alone, as described in ref.[57]. Membranes were probed with HRP tagged anti-GST, and the presence of SH3-GST fusion protein was detected with ECL chemiluminescent detection solution (Thermo Fisher Scientific).

Molecule: Las17 (300–422) P387A: Las17 (300–422) with P387A mutation
- effect on actin binding (G-actin [1]): little change in actin binding

Molecule: C/C1=C/C(=O)O[C@@H]2C[C@@H](CC[C@H](C)/C=C\C=C\CC1)O[C@@](O)([C@@H]1CSC(=O)N1)C2 [latrunculin-A, reference compound]
- increase in Lat-A sensitivity of las17 P387A compared to wild type [2]: 7 fold

Molecule: Sla1 SH3#1&2 W108A (domain or fragment)
- Kd [3]: 7.4 µM

Molecule: Las17 (300–422) P388A: Las17 (300–422) with P388A mutation
- effect on actin binding (G-actin [1]): little change in actin binding

Molecule: Las17(342–392): minimal Las17 fragment with two arginine-pair actin sites, left on GST tag
- stimulation of Arp2/3-independent actin polymerisation (actin): unable to stimulate Arp2/3-independent actin polymerisation

Molecule: Las17(300–633): Las17 fragment containing both PPR and VCA
- stimulation of Arp2/3-independent actin polymerisation (actin): able to stimulate actin polymerisation in the absence of Arp2/3

B1: Sla1 SH3#1-3: SH3#1-3 (aa 5-413), fragment with all three SH3 domains (protein)
chain: LGIYRAVYAYEPQTPEELAIQEDDLLYLLQKSDIDDWWTVKKRVIGSDSEEPVGLVPSTYIEEAPVLKKVRAIYDYEQVQNADEELTFHENDVFDVFDDKDADWLLVKSTVSNEFGFIPGNYVEPENGSTSKQEQAPAAAEAPAATPAAAPASAAVLPTNFLPPPQHNDRARMMQSKEDQAPDEDEEGPPPAMPARPTATTETTDATAAAVRSRTRLSYSDNDNDDEEDDYYYNSNSNNVGNHEYNTEYHSWNVTEIEGRKKKKAKLSIGNNKINFIPQKGTPHEWSIDKLVSYDNEKKHMFLEFVDPYRSLELHTGNTTTCEEIMNIIGEYKGASRDPGLREVEMASKSKKRGIVQYDFMAESQDELTIKSGDKVYILDDKKSKDWWMCQLVDSGKSGLVPAQFIEPV
modifications: left off: GST, end not stated, cleaved
notes: SH3#1-3 (aa 5-413), fragment with all three SH3 domains
- Kd ([4]; Octet R2, Las17 (aa 300-422), three repeats with newly prepared protein, read-out: binding affinity (Kd)): 0.039 µM
- inhibition of Las17-Arp2/3 mediated actin polymerisation [5]: substantial inhibition of actin polymerisation
- fold change in apparent Kd of actin for Las17 (G-actin [6]): 40 fold
- fold change in apparent Kd of actin for Las17 (G-actin [6]; listed as Sla1): 40.6 fold
- inhibition of actin polymerisation activity [7]: about 85%

B2: Sla1 SH3#2: second SH3 domain of Sla1, GST-Sla1 SH3#2 in pGEX4T1 (protein)
chain: PVLKKVRAIYDYEQVQNADEELTFHENDVFDVFDDKDADWLLVKSTVSNEFGFIPGNYVEPENG
modifications: left off: GST, end not stated, cleaved
notes: second SH3 domain of Sla1, GST-Sla1 SH3#2 in pGEX4T1
- binding ([4]; result in words): showed no binding
- binding (Las17): weak binding was detected
- binding to Las17 peptide spots [8]: only showed weak binding to spots
- inhibition of actin polymerisation activity [7]: about 80%
